Target: THO complex (endogenous, purified via Sub2 and Hpr1-TS) (S. cerevisiae | S. cerevisiae (endogenous in yeast)) (UniProt P17629)
Assay: cryo-EM structure; single-particle cryo-EM of the benzonase-treated native eluate on 2-nm carbon-supported grids; Glacios 200 kV; heterogeneous and nonuniform refinement without imposed symmetry

THO complex (endogenous, purified via Sub2 and Hpr1-TS) (from UniProt P17629 1-752; P53552 1-1597)
stoichiometry N: 2
